B1: VvRsbS, recombinant, untagged, co-expressed with VvRsbR (natural protein, Vibrio vulnificus CMCP6, UniProt A0A3Q0KX63 1-117, looked up)
chain: MTMQSAISISKLQDVLIASVQVDLTESTLRDFSLDLLDAVKSTRAKGVMIELSGVKTLDGESMHRLLDVVKTVEVMGRRCLLVGLRPGVVIGLMDIGIDLASTLCVADLEQGFLYLE
notes: VvRsbS of Vibrio vulnificus CMCP6, locus VV2_0074; STAS domain made up of 115 residues; also called VvRsbS2 (dimer)
B2: VvRsbR, recombinant, untagged, co-expressed with VvRsbS (natural protein, Vibrio vulnificus CMCP6, UniProt A0A3Q0KX46 1-306, looked up)
chain: MSLGSVLNKVEDADELLKLHDLTEADLALIRKFGQIMVPKLDEYVKHFYDWLRNTPEYEQYFGDAQKLQRVQDSQVRYWKTFFDARIDSAYLKERRDVGEIHARVGLPLPTYFAGMNISMVIFTKRMYDGSLYSDEYSSLVTAFTKLLHLDTTIVVDTYSRLINKRISEQSEALLAMSTPVTMIWQDILMLPIVGIIDSKRAQDIMSAVLNKISENRAKIFIMDISGVAVVDTAVANHFIKITKATKLMGCDCLVSGVSPSIARTMVQLGINVGEVRTNATLRDALENAFKIVGLTVSGLKHFPHE
notes: VvRsbR of Vibrio vulnificus CMCP6, locus VV2_0073; full-length gene amplified from genomic DNA, expressed untagged from pJPF012; Carries a heme in its N-terminal globin coupled sensor domain; In PDB 7O01 the linker helix was modelled as poly-alanine; also called VvRsbR2 (dimer)

Experiments:
[1] = target: the molecule itself; experiment: cryo-EM structure; purified, oxidized VvRsbR:VvRsbS complex (co-expressed in E. coli) at 0.3 mg/mL; single particle reconstructions in C1 and D2; homology models fitted into the map
[2] = target: B1; experiment: quantification of fluorescently stained SDS-PAGE bands of the purified complex; purified VvRsbR:VvRsbS complex separated by SDS PAGE, stained with Krypton, Typhoon scanner, bands quantified with ImageQuant; details: both partners purified

Binder | stoichiometry N [1] | stoichiometry N [2]
B1 | 2 | –
B2 | 2 | 2.4 VvRsbR:VvRsbS
